The numbers were not newly measured in publication PMC2666074 (Biochemistry, 2008), which cites them from elsewhere.

This data set has as its system β-catenin in HEK293 cells. The following applies: no detectable levels of S100A6, ref Matsuzawa and Reed (2001).

B1: Siah-1: Siah-1 overexpressed by transient transfection of pSiah-1-FLAG (protein, UniProt Q8IUQ4 1-282, looked up)
E3 ubiquitin-protein ligase …: MSRQTATALPTGTSKCPPSQRVPALTGTTASNNDLASLFECPVCFDYVLPPILQCQSGHLVCSNCRPKLTCCPTCRGPLGSIRNLAMEKVANSVLFPCKYASSGCEITLPHTEKADHEELCEFRPYSCPCPGASCKWQGSLDAVMPHLMHQHKSITTLQGEDIVFLATDINLPGAVDWVMMQSCFGFHFMLVLEKQEKYDGHQQFFAIVQLIGTRKQAENFAYRLELNGHRRRLTWEATPRSIHEGIATAIMNSDCLVFDTSIAQLFAENGNLGINVTISMC
modifications: FLAG tag
B1: the “level of β-catenin upon Siah-1 transfection, in words” value is reported as “reduced levels of β-catenin”.
